Reference: PMC11169541 (2024)

T1: SARS-CoV-2 N protein (nucleocapsid) peptide on HLA-A*02:01 (human)
T1 peptide: RTATKAYNV

T2: SARS-CoV N protein (nucleocapsid) peptide on HLA-A*02:01 (human)
T2 peptide: RTATKQYNV

B1: TCR-4 (TCR)
alpha TRAV17*01 TRAJ27*01 CDR3: CATDEDTNAGKSTF
beta TRBV4-1*01 TRBJ1-1*01 CDR3: CASSPDPWGVDTEAFF
B2: TCR-2 (TCR)
alpha TRAV4*01 TRAJ34*01 CDR3: CLVGDVDTDKLIF
beta TRBV20-1*05 TRBJ1-6*01 CDR3: CSASHPGDSPLHF

Key:
[1] = target: T1, SARS-CoV-2 N protein (nucleocapsid) …; assay: multimer staining
[2] = target: T2, SARS-CoV N protein (nucleocapsid) …; assay: multimer staining

Binder | binding result [1] | binding result [2]
B1 | recognises | no recognition
B2 | recognises | no recognition
